Read-outs that look alike come from different tables or passages of the source.
Columns and labels:
Test in all cases: cell-based or functional assay
[1] = target: TSHR with Arg255 mutated to Ala, expressed in CHO cells (human) (UniProt P16473)
[2] = target: TSHR with Asp203 mutated to Ala expressed in CHO cells (human) (UniProt P16473)
[3] = target: TSHR with Glu178 mutated to Ala expressed in CHO cells (human) (UniProt P16473)
[4] = target: TSHR with Lys183 mutated to Ala expressed in CHO cells (human) (UniProt P16473)
[5] = target: TSHR with Lys183 mutated to Asp expressed in CHO cells (human) (UniProt P16473)
[6] = target: TSHR with Lys250 mutated to Ala (expressed in CHO cells) (human) (UniProt P16473)
[7] = target: TSHR with Lys58 mutated to Ala expressed in CHO cells (human) (UniProt P16473)
[8] = target: wild type TSHR (human TSH receptor) expressed in CHO cells (human) (UniProt P16473)
[9] = target: wild type TSHR expressed in CHO cells (human) (UniProt P16473)
[10] = target: TSHR with Arg80 mutated to Ala expressed in CHO cells (human) (UniProt P16473)
[11] = target: wild type TSHR expressed in CHO cells (human) (UniProt P16473); remark: listed apart in the source
[12] = target: TSHR with Tyr82 mutated to Ala expressed in CHO cells (human) (UniProt P16473)
[13] = target: wild type TSHR expressed in CHO cells (human) (UniProt P16473); remark: listed apart in the source
[14] = target: human TSHR with Glu251 mutated to Ala expressed in CHO cells (human) (UniProt P16473)
[15] = target: wild type TSHR expressed in CHO cells (human) (UniProt P16473); remark: listed apart in the source
[16] = target: TSHR with Thr257 mutated to Ala, expressed in CHO cells (human) (UniProt P16473)
[17] = target: wild type TSHR (human TSH receptor) expressed in CHO cells (human) (UniProt P16473); remark: listed apart in the source
[18] = target: TSHR with Trp258 mutated to Ala, expressed in CHO cells (human) (UniProt P16473)
[19] = target: wild type TSHR (human TSH receptor) expressed in CHO cells (human) (UniProt P16473); remark: listed apart in the source

Question: Which results are given for “TSH (thyroid stimulating hormone) (ligand)”?
Answer: % inhibition of TSH stimulation; TSH (2), run at the end of assay [1]: 7%; Cyclic AMP produced; TSH 3 ng/mL [1]: 63.9 pmol/mL; Cyclic AMP produced; TSH (2) 3 ng/mL, run at the end of assay [1]: 59.6 pmol/mL; Mutated/wild type (%) of cyclic AMP produced; TSH 3 ng/mL [1]: 102%; Mutated/wild type (%) of cyclic AMP produced; TSH (2) 3 ng/mL, run at the end of assay [1]: 87%; % inhibition of TSH stimulation: TSH (2) [2]: 0%; Cyclic AMP, Mutated/wild type (%): TSH 3 ng/mL [2]: 76%; Cyclic AMP, Mutated/wild type (%): TSH (2) [2]: 87%; % inhibition of TSH stimulation; TSH (2), run at the end of assay; Exp 1 [3]: 12%; % inhibition of TSH stimulation; TSH (2), run at the end of assay; Exp 2 [3]: 5%; Cyclic AMP produced; TSH 3 ng/mL; Exp 1 [3]: 56.6 pmol/mL; Cyclic AMP produced; TSH 3 ng/mL; Exp 2 [3]: 46.2 pmol/mL; Cyclic AMP produced; TSH (2) 3 ng/mL, run at the end of assay; Exp 1 [3]: 50.1 pmol/mL; Cyclic AMP produced; TSH (2) 3 ng/mL, run at the end of assay; Exp 2 [3]: 44.1 pmol/mL; Mutated/wild type (%) of cyclic AMP produced; TSH 3 ng/mL; Exp 1 [3]: 107%; Mutated/wild type (%) of cyclic AMP produced; TSH 3 ng/mL; Exp 2 [3]: 53%; Mutated/wild type (%) of cyclic AMP produced; TSH (2) 3 ng/mL, run at the end of assay; Exp 1 [3]: 65%; Mutated/wild type (%) of cyclic AMP produced; TSH (2) 3 ng/mL, run at the end of assay; Exp 2 [3]: 50%; % inhibition of TSH stimulation, Exp 1: TSH (2) [4]: 18%; % inhibition of TSH stimulation, Exp 2: TSH (2) [4]: 23%; Cyclic AMP, Mutated/wild type (%), Exp 1: TSH 3 ng/mL [4]: 124%; Cyclic AMP, Mutated/wild type (%), Exp 1: TSH (2) [4]: 74%; Cyclic AMP, Mutated/wild type (%), Exp 2: TSH 3 ng/mL [4]: 128%; % inhibition of TSH stimulation; TSH (2), run at the end of assay [5]: 20%; Cyclic AMP produced; TSH 3 ng/mL [5]: 117 pmol/mL; Cyclic AMP produced; TSH (2) 3 ng/mL, run at the end of assay [5]: 93.4 pmol/mL; Mutated/wild type (%) of cyclic AMP produced; TSH 3 ng/mL [5]: 137%; % inhibition of TSH stimulation; TSH (2), run at the end of assay, no antibody; Experiment 1 [6]: 10%; % inhibition of TSH stimulation; TSH (2), run at the end of assay, no antibody; Experiment 2 [6]: 7%; Cyclic AMP produced; TSH 3 ng/mL alone; Experiment 1 [6]: 64.7 pmol/mL; Cyclic AMP produced; TSH 3 ng/mL alone; Experiment 2 [6]: 55 pmol/mL; Cyclic AMP produced; TSH (2) 3 ng/mL, run at the end of assay; Experiment 1 [6]: 58.3 pmol/mL; Cyclic AMP produced; TSH (2) 3 ng/mL, run at the end of assay; Experiment 2 [6]: 51.1 pmol/mL; Mutated/wild type (%) of cyclic AMP produced; TSH 3 ng/mL alone; Experiment 1 [6]: 83%; Mutated/wild type (%) of cyclic AMP produced; TSH 3 ng/mL alone; Experiment 2 [6]: 64%; Cyclic AMP produced at 0.01 ng/mL TSH [7]: 7.16 pmol/mL; Cyclic AMP produced at 0.03 ng/mL TSH [7]: 10 pmol/mL; Cyclic AMP produced at 0.1 ng/mL TSH [7]: 17.2 pmol/mL; Cyclic AMP produced at 0.3 ng/mL TSH [7]: 45.9 pmol/mL; Cyclic AMP produced at 1 ng/mL TSH [7]: 75.2 pmol/mL; Cyclic AMP produced at 3 ng/mL TSH [7]: 83.7 pmol/mL; Mutated/Wild type (%) of cyclic AMP at 0.01 ng/mL TSH [7]: 230%; Mutated/Wild type (%) of cyclic AMP at 0.03 ng/mL TSH [7]: 226%; Mutated/Wild type (%) of cyclic AMP at 0.1 ng/mL TSH [7]: 171%; Mutated/Wild type (%) of cyclic AMP at 0.3 ng/mL TSH [7]: 111%; Mutated/Wild type (%) of cyclic AMP at 1 ng/mL TSH [7]: 101%; Mutated/Wild type (%) of cyclic AMP at 3 ng/mL TSH [7]: 88%; % inhibition of TSH stimulation, Exp 1: TSH (2) [8]: 0%; % inhibition of TSH stimulation, Exp 2: TSH (2) [8]: 0%; % inhibition of TSH stimulation: TSH (2) [8]: 0%; % inhibition of TSH stimulation; TSH (2), run at the end of assay [8]: 0%; Cyclic AMP produced; TSH 3 ng/mL [8]: 62.4 pmol/mL; Cyclic AMP produced; TSH (2) 3 ng/mL, run at the end of assay [8]: 68.4 pmol/mL; % inhibition of TSH stimulation; TSH (2), run at the end of assay [9]: 0%; % inhibition of TSH stimulation; TSH (2), run at the end of assay, no antibody; Experiment 1 [9]: 0%; % inhibition of TSH stimulation; TSH (2), run at the end of assay, no antibody; Experiment 2 [9]: 12%; % inhibition of TSH stimulation; TSH (2), run at the end of assay; Exp 1 [9]: 0%; % inhibition of TSH stimulation; TSH (2), run at the end of assay; Exp 2 [9]: 0%; Cyclic AMP produced at 0.01 ng/mL TSH [9]: 3.11 pmol/mL; Cyclic AMP produced at 0.03 ng/mL TSH [9]: 4.43 pmol/mL; Cyclic AMP produced at 0.1 ng/mL TSH [9]: 10.1 pmol/mL; Cyclic AMP produced at 0.3 ng/mL TSH [9]: 41.2 pmol/mL; Cyclic AMP produced at 1 ng/mL TSH [9]: 74.5 pmol/mL; Cyclic AMP produced at 3 ng/mL TSH [9]: 95.3 pmol/mL; Cyclic AMP produced; TSH 3 ng/mL [9]: 85.8 pmol/mL; Cyclic AMP produced; TSH 3 ng/mL alone; Experiment 1 [9]: 77.9 pmol/mL; Cyclic AMP produced; TSH 3 ng/mL alone; Experiment 2 [9]: 86.5 pmol/mL; Cyclic AMP produced; TSH 3 ng/mL; Exp 1 [9]: 52.9 pmol/mL; Cyclic AMP produced; TSH 3 ng/mL; Exp 2 [9]: 87.2 pmol/mL; Cyclic AMP produced; TSH (2) 3 ng/mL, run at the end of assay [9]: 97.8 pmol/mL; Cyclic AMP produced; TSH (2) 3 ng/mL, run at the end of assay; Exp 1 [9]: 77.2 pmol/mL; Cyclic AMP produced; TSH (2) 3 ng/mL, run at the end of assay; Exp 2 [9]: 88.1 pmol/mL; Cyclic AMP produced; TSH (2) 3 ng/mL, run at the end of assay; Experiment 1 [9]: 84.5 pmol/mL; Cyclic AMP produced; TSH (2) 3 ng/mL, run at the end of assay; Experiment 2 [9]: 75.9 pmol/mL; Cyclic AMP produced at 0.01 ng/mL TSH [10]: 4.06 pmol/mL; Cyclic AMP produced at 0.03 ng/mL TSH [10]: 6.19 pmol/mL; Cyclic AMP produced at 0.1 ng/mL TSH [10]: 13.3 pmol/mL; Cyclic AMP produced at 0.3 ng/mL TSH [10]: 27.7 pmol/mL; Cyclic AMP produced at 1 ng/mL TSH [10]: 54.5 pmol/mL; Cyclic AMP produced at 3 ng/mL TSH [10]: 57 pmol/mL; Mutated/Wild type (%) of cyclic AMP at 0.01 ng/mL TSH [10]: 203%; Mutated/Wild type (%) of cyclic AMP at 0.03 ng/mL TSH [10]: 168%; Mutated/Wild type (%) of cyclic AMP at 0.1 ng/mL TSH [10]: 146%; Mutated/Wild type (%) of cyclic AMP at 0.3 ng/mL TSH [10]: 125%; Cyclic AMP produced at 0.01 ng/mL TSH [11]: 2 pmol/mL; Cyclic AMP produced at 0.03 ng/mL TSH [11]: 3.68 pmol/mL; Cyclic AMP produced at 0.1 ng/mL TSH [11]: 9.1 pmol/mL; Cyclic AMP produced at 0.3 ng/mL TSH [11]: 22.2 pmol/mL; Cyclic AMP produced at 1 ng/mL TSH [11]: 57.5 pmol/mL; Cyclic AMP produced at 3 ng/mL TSH [11]: 58.5 pmol/mL; Cyclic AMP produced at 0.01 ng/mL TSH [12]: 2.6 pmol/mL; Cyclic AMP produced at 0.03 ng/mL TSH [12]: 4.1 pmol/mL; Cyclic AMP produced at 0.1 ng/mL TSH [12]: 9.64 pmol/mL; Cyclic AMP produced at 0.3 ng/mL TSH [12]: 33.7 pmol/mL; Cyclic AMP produced at 1 ng/mL TSH [12]: 50 pmol/mL; Cyclic AMP produced at 3 ng/mL TSH [12]: 61.3 pmol/mL; Mutated/Wild type (%) of cyclic AMP at 0.01 ng/mL TSH [12]: 257%; Mutated/Wild type (%) of cyclic AMP at 0.03 ng/mL TSH [12]: 93%; Mutated/Wild type (%) of cyclic AMP at 0.1 ng/mL TSH [12]: 100%; Mutated/Wild type (%) of cyclic AMP at 0.3 ng/mL TSH [12]: 113%; Mutated/Wild type (%) of cyclic AMP at 3 ng/mL TSH [12]: 108%; Cyclic AMP produced at 0.01 ng/mL TSH [13]: 1.01 pmol/mL; Cyclic AMP produced at 0.03 ng/mL TSH [13]: 4.39 pmol/mL; Cyclic AMP produced at 0.1 ng/mL TSH [13]: 9.67 pmol/mL; Cyclic AMP produced at 0.3 ng/mL TSH [13]: 29.8 pmol/mL; Cyclic AMP produced at 1 ng/mL TSH [13]: 53.3 pmol/mL; Cyclic AMP produced at 3 ng/mL TSH [13]: 56.6 pmol/mL; % inhibition of TSH stimulation; TSH (2), run at the end of assay, no antibody [14]: 0%; Cyclic AMP produced; TSH 3 ng/mL alone [14]: 76.1 pmol/mL; Cyclic AMP produced; TSH (2) 3 ng/mL, run at the end of assay [14]: 87.4 pmol/mL; Mutated/wild type (%) of cyclic AMP produced; TSH 3 ng/mL alone [14]: 78%; Mutated/wild type (%) of cyclic AMP produced; TSH (2) 3 ng/mL, run at the end of assay [14]: 84%; % inhibition of TSH stimulation; TSH (2), run at the end of assay, no antibody [15]: 0%; Cyclic AMP produced; TSH 3 ng/mL alone [15]: 97.5 pmol/mL; Cyclic AMP produced; TSH (2) 3 ng/mL, run at the end of assay [15]: 104 pmol/mL; % inhibition of TSH stimulation; TSH (2), run at the end of assay [16]: 8%; Cyclic AMP produced; TSH 3 ng/mL [16]: 93.2 pmol/mL; Cyclic AMP produced; TSH (2) 3 ng/mL, run at the end of assay [16]: 85.4 pmol/mL; Mutated/wild type (%) of cyclic AMP produced; TSH 3 ng/mL [16]: 141%; Cyclic AMP produced; TSH 3 ng/mL [17]: 66.1 pmol/mL; Cyclic AMP produced; TSH (2) 3 ng/mL, run at the end of assay [17]: 93 pmol/mL; % inhibition of TSH stimulation; TSH (2), run at the end of assay [18]: 20%; Cyclic AMP produced; TSH 3 ng/mL [18]: 59.9 pmol/mL; Cyclic AMP produced; TSH (2) 3 ng/mL, run at the end of assay [18]: 47.8 pmol/mL; Mutated/wild type (%) of cyclic AMP produced; TSH 3 ng/mL [18]: 102%; Cyclic AMP produced; TSH 3 ng/mL [19]: 58.8 pmol/mL; Cyclic AMP produced; TSH (2) 3 ng/mL, run at the end of assay [19]: 69.6 pmol/mL
